Assay [1] has as its target T1, human nectin-4 protein expressed on the surface of cells (human, UniProt Q96NY8 32-510). As to the kind of experiment: cell-based or functional assay.
The target of assay [2] is T1, human nectin-4 protein expressed on the …. Briefly: flow cytometry, HEK 293 cells overexpressing the target. On the procedure:
(§1) Human embryonic kidney (HEK) 293 cells overexpressing human, cynomolgus monkey, rat, or mouse nectin-4 protein were produced. Cells were lifted with Versene to preserve cell surface proteins and were resuspended at 10e6/mL in PBS+2% FBS. 100 μl was added to a flow tube to test […]. Primary antibodies were diluted to […] and 10 μL was added for a total of 1 μg/test. Primary antibodies (or ADCs) were incubated with cells for 1 h on ice. Then, cells were washed 1× in 2 mL PBS+2% FBS and secondary antibody was added for detection. AF488-conjugated anti-human antibody from Jackson Immunoresearch, diluted according to the manufacturer's instructions+50% glycerol, was used at 1 μL/test-diluted to ⅕ the concentration in PBS+2% FBS and 5 μL were added per tube. The secondary reagent was incubated with the cells for 30 min, then cells were washed 2× in PBS+2% FBS and analyzed by flow cytometry on a BD FacsCanto instrument equipped with FACSDiva software.
(§2) Lead clones were tested for binding to human, cynomolgus monkey, rat, or mouse nectin-4 protein expressed on the surface of HEK 293 cells. Enfortumab was included as a positive control and an anti-FITC reactive antibody was included as a negative control.

Assay [3] has as its target T2, cynomolgus monkey nectin-4 protein expressed on the surface of HEK 293 cells (cynomolgus monkey, UniProt A0A2K5WES1 32-510).
T2 construct: whole, on cells
T2 sequence: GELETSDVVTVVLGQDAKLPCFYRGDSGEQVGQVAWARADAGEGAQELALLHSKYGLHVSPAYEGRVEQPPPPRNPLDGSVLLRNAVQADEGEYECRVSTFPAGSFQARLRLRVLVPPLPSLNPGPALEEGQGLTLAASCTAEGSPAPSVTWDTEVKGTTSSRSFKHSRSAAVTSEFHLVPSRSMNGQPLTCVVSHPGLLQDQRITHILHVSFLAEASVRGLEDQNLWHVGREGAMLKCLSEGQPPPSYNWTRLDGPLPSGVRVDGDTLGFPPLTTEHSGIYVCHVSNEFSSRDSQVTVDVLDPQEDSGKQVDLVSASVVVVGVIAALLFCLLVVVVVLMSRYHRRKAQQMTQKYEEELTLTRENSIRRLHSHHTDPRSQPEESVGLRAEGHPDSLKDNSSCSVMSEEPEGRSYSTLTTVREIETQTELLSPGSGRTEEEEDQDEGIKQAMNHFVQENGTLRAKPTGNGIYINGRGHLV
The description is as above. The method, then: as §1, §2

Assay [4] addresses T3, rat nectin-4 protein expressed on the surface of HEK 293 cells (rat, UniProt D3ZET1 31-509).
T3 construct: whole, on cells
T3 sequence: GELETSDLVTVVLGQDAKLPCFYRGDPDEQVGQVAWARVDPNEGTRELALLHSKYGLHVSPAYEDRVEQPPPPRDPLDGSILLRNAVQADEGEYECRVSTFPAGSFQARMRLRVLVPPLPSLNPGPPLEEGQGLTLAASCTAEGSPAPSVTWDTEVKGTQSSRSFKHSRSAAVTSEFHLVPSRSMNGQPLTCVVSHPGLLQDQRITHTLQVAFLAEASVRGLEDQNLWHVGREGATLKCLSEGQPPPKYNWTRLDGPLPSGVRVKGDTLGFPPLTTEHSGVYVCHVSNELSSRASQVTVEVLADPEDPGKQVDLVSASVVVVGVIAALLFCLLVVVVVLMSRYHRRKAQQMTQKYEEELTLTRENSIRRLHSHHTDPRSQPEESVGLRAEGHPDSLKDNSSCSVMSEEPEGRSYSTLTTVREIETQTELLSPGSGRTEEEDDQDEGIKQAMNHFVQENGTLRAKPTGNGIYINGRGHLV
The assay is described as above. The method, then:
as §1, §2

Assay [5] has as its target T4, mouse nectin-4 protein expressed on the surface of HEK 293 cells (mouse, UniProt Q8R007 31-508).
T4 construct: whole, on cells
T4 sequence (looked up): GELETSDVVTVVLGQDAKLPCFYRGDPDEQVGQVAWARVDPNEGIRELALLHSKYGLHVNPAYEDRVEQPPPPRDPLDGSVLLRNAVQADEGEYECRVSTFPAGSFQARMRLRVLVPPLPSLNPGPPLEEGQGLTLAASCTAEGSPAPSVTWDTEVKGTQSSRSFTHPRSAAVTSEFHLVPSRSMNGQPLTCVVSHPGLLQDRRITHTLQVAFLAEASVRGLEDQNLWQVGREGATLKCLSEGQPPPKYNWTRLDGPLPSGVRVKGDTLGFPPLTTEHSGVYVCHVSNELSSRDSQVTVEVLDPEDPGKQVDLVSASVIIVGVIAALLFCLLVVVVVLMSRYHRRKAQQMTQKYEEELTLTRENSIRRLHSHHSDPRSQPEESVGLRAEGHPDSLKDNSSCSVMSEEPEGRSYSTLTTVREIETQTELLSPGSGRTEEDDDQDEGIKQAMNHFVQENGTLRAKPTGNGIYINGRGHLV
Described as above. On the procedure: as §1, §2

B1: Enfortumab (antibody, V domains shown)
VH: EVQLVESGGGLVQPGGSLRLSCAASGFTFSSYNMNWVRQAPGKGLEWVSYISSSSSTIYYADSVKGRFTISRDNAKNSLSLQMNSLRDEDTAVYYCARAYYYGMDVWGQGTTVTVSS
VL: DIQMTQSPSSVSASVGDRVTITCRASQGISGWLAWYQQKPGKAPKFLIYAASTLQSGVPSRFSGSGSGTDFTLTISSLQPEDFATYYCQQANSFPPTFGGGTKVEIKR
Take B1: in assay [1], the “IC50, in vitro potency, HEK Cells + Nectin-4” value is 0.685 nM. Moreover, the Flow data was determined as 17100 in assay [2], 20000 in assay [3], 45500 in assay [4] and 3220 in assay [5].

These data come from patent publication US20250101098A1 (R P SCHERER TECHNOLOGIES, published 2025).
